{
  "source": "patent US20190248902A1",
  "about": "(published 2019)",
  "binders": {"B1": {"name": "190F8 (antibody, V domains shown)", "VH": "QVQLVESGGGVVQPGRSLRLSCAASGFTFSTYGMHWVRQAPGKGLEWVAVIWYDGSNKNYADSVKGRFTISRDNSKNTLYLQMNSLRAEDTAVYYCARDQGVGYDGLDVWGQGTTVTVSS", "VL": "DIQMTQSPSSLSASVGDRVTITCRTSQGIGNYLAWFQQKPGKAPKSLLYKASSLQSGVPSKFSGSGSGTDFTLTISSLQPEDFATYYCQQYMTYPLTFGGGTKVEIK", "notes": "mAb"}, "B2": {"name": "191G1 (antibody, V domains shown)", "VH": "B1 VH with T31S, K58E, N59H, Q100R, D105Y", "VL": "B1 VL with T25A, G30S, L48I, K50A, Q90H, M92L", "notes": "mAb"}, "B3": {"name": "191G10 (antibody, V domains shown)", "VH": "B1 VH with T31S", "VL": "B1 VL with N31K, A51V", "notes": "mAb"}, "B4": {"name": "198G3 (antibody, V domains shown)", "VH": "B1 VH with R19K, S56T, Y80C", "VL": "B1 VL with T5A, N31K, S56G", "notes": "mAb"}, "B5": {"name": "194C1 (antibody, V domains shown)", "VH": "B1 VH with T31S, K58E, N59H, D99N, Q100R, D105Y", "VL": "B1 VL with T25A, G30S, L48I, K50A, Q89L, Q90H, M92L", "notes": "mAb"}, "B6": {"name": "176H4 (antibody, V domains shown)", "VH": "QVQLVESGGGVVQPGRSLRLSCAASGFTFSSYGMHWVRQAPGKGLEWVAIIWYDGSYKYYADSVKGRFTISRDNSKNTLYLQMSSLRAEDTAVYYCARDAHDFWSGYFAYWGQGALVTVSS", "VL": "DIVMTQTPLSLSVTPGQPASISCKSSQSLLHGDGKTYLYWYLQKPGQPPQLLIYEVSNRFSGVPDRFSGSGSGTDFTLKISRVEAEDVGIYYCMQSIQIPWTFGQGTRVEIK", "notes": "mAb"}, "B7": {"name": "197G3 (antibody, V domains shown)", "VH": "B1 VH with A23V, T31S, Y32H, Q100P, G101S, L107M", "VL": "DIQMTQSPSSLSASVGDRVTITCRASQGIGNHLAWFQQKPGKAPKSLIYAASSLQSGVPSKFSGSRSGTDFSLTISSLQPEDFATYYCQQYSNYPVTFGPGTKVDIK", "notes": "mAb"}, "B8": {"name": "218G4 (antibody, V domains shown)", "VH": "QVQLVESGGGVVQPGRSLRLSCAASGFTFSSYGLHWVRQAPGKGLEWVAVIWYDGSNKYYADSVKGRFTISRDNSKNTLYLQMNSLRVEDTAVYYCANWYYYYYGMDVWGQGTTVTVSS", "VL": "QSVLTQPPSVSAAPGQKVTISCSGSSSNIGNNYVSWYQQLPGTAPKLLLYDSNKRPSGIPARFSGSKSGTSATLGITGLQTGDEADYYCGTWDSSLNTVVFGGGTKLTVL", "notes": "mAb"}, "B9": {"name": "75G3 (antibody, V domains shown)", "VH": "QVQLQQWGAGLLKPSETLSLTCAVYGGSLSGSYWSWIRQPPGKGLEWIGEINLSGSTNYNPSLKSRVTISVDTSKSQFSLTLRSVTAADTAVYYCARDYGGLDYWGQGTLVTVSS", "VL": "EIVLTQSPGTLSLSPGERATLSCRARQNVDSSYLAWYQQKPGQAPRLLIYGASSRATGIPDRFSGSGSGTDFTLTISRLEPEDFAVFYCQQYERSPWTFGQGTKVEIK", "notes": "mAb"}, "B10": {"name": "194C10 (antibody, V domains shown)", "VH": "QVQLQQWGAGLLKPSETLSLTCAVSGGSFRYYYWSWIRQPPGKGLEWFGEINHSGSTNYNPSLKSRVTISIDTSKNQFSLKLRSVTAADTAVYYCARDYGAFDIWGQGTMVTVSS", "VL": "EIVLTQSPGTLSLSPGERATLSCRASPSVNSGYLAWYQQKPGQTPRLLIFGASSRATGIPDRFSASGSGADFTLTISRLEPEDFAVYFCQQYESSPWTFGQGTKVEIK", "notes": "mAb"}, "B11": {"name": "193E7 (antibody, V domains shown)", "VH": "QVQLQQWGAGLLKPSETLSLTCAVYGGSFSGYFWTWIRQPPGKGLEWIGEINHSGSTNYNPSLKSRVTISVDTSKNQFSLKLSSVTAADTAVYYCARDYGADYWGQGTLVAVSA", "VL": "DIQMTQSPSSLSASVGDRVTITCRASQGIRNDLGWYQQKPGKAPKRLIYSASSLQRGVPSRFSGSGSGTEFTLTISSLQPEDFATYYCLQHKRYPLTFGGGTKVEIK", "notes": "mAb"}},
  "note": "Numbering of substitutions follows the chain as printed.",
  "data": [
    {"target": "T1, human ASGR-1 mutant construct H203 (human, UniProt P07306 1-291)", "T1 construct": "Arg/Glu scanning: non-arginine residues were changed to arginine; Transiently expressed on CHO-S cells", "T1 sequence": "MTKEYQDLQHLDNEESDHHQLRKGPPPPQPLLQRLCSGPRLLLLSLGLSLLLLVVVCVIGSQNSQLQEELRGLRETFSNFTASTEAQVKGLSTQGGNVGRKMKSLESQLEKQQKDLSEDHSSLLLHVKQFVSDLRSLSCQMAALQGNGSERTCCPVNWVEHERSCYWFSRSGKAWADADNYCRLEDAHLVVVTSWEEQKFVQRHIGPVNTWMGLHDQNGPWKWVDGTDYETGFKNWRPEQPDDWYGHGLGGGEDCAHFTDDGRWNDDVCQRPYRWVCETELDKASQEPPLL", "assay": "FACS, transfected CHO-S cells, mAb 5 ug/ml", "outline": "(§1)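 Transiently transfected CHO-S cells expressing wild-type or mutant hASGR-1 incubated with antibody at 5 ug/ml, 1 h at 4 °C; bound antibody detected by Alexa Fluor 647 anti-Fc plus 7-AAD, by flow cytometry. Binding normalized to expression using an unaffected antibody (65C12), then to wild type; hits defined as >3× IQR above third quartile.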", "values": [
      {"binder": "B1", "FACS Binding Geomean": 15100},
      {"binder": "B2", "FACS Binding Geomean": 10900},
      {"binder": "B3", "FACS Binding Geomean": 17000},
      {"binder": "B4", "FACS Binding Geomean": 13100},
      {"binder": "B5", "FACS Binding Geomean": 11000},
      {"binder": "B6", "FACS Binding Geomean": 10200},
      {"binder": "B7", "FACS Binding Geomean": 3500},
      {"binder": "B8", "FACS Binding Geomean": 7930},
      {"binder": "B9", "FACS Binding Geomean": 14500},
      {"binder": "B10", "FACS Binding Geomean": 13200},
      {"binder": "B11", "FACS Binding Geomean": 13800}
    ]},
    {"target": "T2, human ASGR-1 (wild type) (human, UniProt P07306 1-291)", "T2 construct": "also called wt ASGR1; huASGR-1", "T2 sequence": "T1 sequence with R203H", "assay": "FACS, transfected CHO-S cells, mAb 5 ug/ml", "outline": "as §1", "values": [
      {"binder": "B1", "FACS Binding Geomean": 36500},
      {"binder": "B2", "FACS Binding Geomean": 25300},
      {"binder": "B3", "FACS Binding Geomean": 33800},
      {"binder": "B4", "FACS Binding Geomean": 21500},
      {"binder": "B5", "FACS Binding Geomean": 20900},
      {"binder": "B6", "FACS Binding Geomean": 33500},
      {"binder": "B7", "FACS Binding Geomean": 13300},
      {"binder": "B8", "FACS Binding Geomean": 12200},
      {"binder": "B9", "FACS Binding Geomean": 37200},
      {"binder": "B10", "FACS Binding Geomean": 28100},
      {"binder": "B11", "FACS Binding Geomean": 35500}
    ]},
    {"target": "T2, human ASGR-1 (wild type)", "assay": "flow cytometry, CHO-S:huASGR-1 cells, 11-point titration", "protocol": "CHO—S stable high-expressing cell line were developed for both human ASGR-1 as well as mouse ASGR-1. A typical 384 well plate multiplex flow cytometery-based cell binding method is described as followed: Parental CHO—S cells and CHO—S:huASGR-1 cells were respectively labeled using a CellTrace CFSE Cell Proliferation Kit (ThermoFisher Catalog #C34554) and CellTrace Violet Cell Proliferation Kit (ThermoFisher Catalog#C34557) CHO—S:muASGR-1 were not labeled. 20 ul of cells at 4C were added to duplicate wells of the 384 well plate. The cells were equally mixed from all three cell lines (30K cells/well). Then 20 ul of the ASGR-1 antibodies (either purified from hybridoma supernatants or made recombinantly) were added in an 11-point dose response using a 1:2 fold serial dilution starting at 100 nM. The cells and antibodies were incubated for 30 min at 4C and then spun down and washed twice with FACS buffer containing 1 mM CaCl2. 30 ul of anti-hulgG-APC secondary antibodies were then added at a 1:1000 dilution) for 30 min at 4C and then washed once with the same buffer. 60 ul of PI (1:1000) was added and then the cells were read by a core flow cytometry facility. The cells were gated first for live cells, then for single cells and finally for the cell dyes to separate the mixed cells into the three different cell populations. Histograms of signal vs count representing the binding profile of each antibody at each antibody concentration were automatically analyzed for the median of the binding signal and then a binding graph was made with log 10 antibody concentration in nM on the X axis with […] from the duplicate wells on the Y-axis. The binding curves were fit with a standard four parameter sigmoidal binding curve and EC50's reported for all graphs with full curves.", "units": {"EC50": "nM"}, "values": [
      {"binder": "B1", "EC50": 9},
      {"binder": "B2", "EC50": 0.16},
      {"binder": "B3", "EC50": 0.31},
      {"binder": "B4", "EC50": 0.21},
      {"binder": "B5", "EC50": 0.11},
      {"binder": "B6", "EC50": 1},
      {"binder": "B7", "EC50": 0.25},
      {"binder": "B8", "EC50": 2.2},
      {"binder": "B9", "EC50": 1},
      {"binder": "B10", "EC50": 0.56},
      {"binder": "B11", "EC50": 0.13}
    ]},
    {"target": "T1, human ASGR-1 mutant construct H203", "assay": "FACS ratio: H203 normalized value / wt normalized value", "outline": "as §1", "values": [
      {"binder": "B1", "Normalization to wt ASGR1 Binding": 1.11},
      {"binder": "B2", "Normalization to wt ASGR1 Binding": 1.07},
      {"binder": "B3", "Normalization to wt ASGR1 Binding": 0.912},
      {"binder": "B4", "Normalization to wt ASGR1 Binding": 0.75},
      {"binder": "B5", "Normalization to wt ASGR1 Binding": 0.868},
      {"binder": "B6", "Normalization to wt ASGR1 Binding": 1.5},
      {"binder": "B7", "Normalization to wt ASGR1 Binding": 1.75},
      {"binder": "B8", "Normalization to wt ASGR1 Binding": 0.707},
      {"binder": "B9", "Normalization to wt ASGR1 Binding": 1.18},
      {"binder": "B10", "Normalization to wt ASGR1 Binding": 0.978},
      {"binder": "B11", "Normalization to wt ASGR1 Binding": 1.18}
    ]}
  ]
}
